Experimental data published in US20190359732A1.

Target: antigen CD3 (Biacore analysis) (Homo sapiens (Human)) (UniProt P07766)
Assay: SPR (Biacore)

Kd: 64.6 nM
koff: 0.109 s⁻¹
kon: 1.68e+06 M⁻¹ s⁻¹
B1: huOKT3 IgG1-aGlyco (antibody, V domains shown)
VH: QVQLVQSGGGVVQPGRSLRLSCKASGYTFTRYTMHWVRQAPGKGLEWIGYINPSRGYTNYNQKFKDRFTISRDNSKNTAFLQMDSLRPEDTGVYFCARYYDDHYCLDYWGQGTPVTVSS
VL: DIQMTQSPSSLSASVGDRVTITCSASSSVSYMNWYQQTPGKAPKRWIYDTSKLASGVPSRFSGSGSGTDYTFTISSLQPEDIATYYCQQWSSNPFTFGQGTKLQITR
